# Experimental data reported in the supplement of paper PMC7125110.
# ± gives the standard error. Fewer inactive variants are shown than the library holds.
# B1: glmS ribozyme (parent)
# chain: AUAAAAGCGCCAGAACUACAGAAAUGUAGUUGACGAGGAGGAGGUUUAUCGAAUUUUCGGCGGAUGCCUCCAAA
# Variants of: B1
# Experiment: self-cleavage kobs at 10000 uM GlcN6P; higher = faster cleavage; RNA array
# Conditions: with glucosamine-6-phosphate
# Outline: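 Sequenced MiSeq chips were the platform: E. coli RNA polymerase transcribed barcoded ribozyme variants on them in situ, and a hybridised Cy3 probe tracked these at 37 °C. After glucosamine-6-phosphate (40 μM to 10 mM) in HEPES/KCl/Mg(OAc)2 buffer was flowed in, tiles were imaged over ~14 h. Signals normalised to baseline and to non-cleaving reference variants were reduced to per-tile medians and fit to one- or two-exponential decays to obtain kobs. kcat and KM were derived through weighted Michaelis–Menten fits across concentrations.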
row,Variant,self-cleavage kobs at 10000 uM GlcN6P [s⁻¹]
1,A15G U56G C68G,6.13e-05 ± 1.3e-05
2,A53U C70G C71G,2.8e-05 ± 1.2e-05
3,A48U C67G,4.58e-05 ± 8.4e-06
4,A12C U31A A42G A52G,0.000429 ± 9.6e-05
5,G9C C34A U55C,< 1e-05
6,G41A G66A C68U,3.05e-05 ± 1.3e-05
7,A12U G13U G29C,3.79e-05 ± 1.5e-05
8,U57C G62U,< 1e-05
9,G7U G13U G63U,< 1e-05
10,U54G G66U C68U,0.000154 ± 3.1e-05
11,G40A U45A G66A,0.00649 ± 0.0018
12,U56G C58U C67A,3.62e-05 ± 1.5e-05
13,C34U G63C C68G,< 1e-05
14,G29U G32A A39U,0.00055 ± 8.7e-05
15,A36C G43U U56C U57A C67G,< 1e-05
16,A36U U49A A53U,3.89e-05 ± 9.3e-06
17,C16U G38U A52C C58A,< 1e-05
18,C8U C34A A53C C71A,< 1e-05
19,A6U C10G G62U C67G C71G,2.87e-05 ± 1.4e-05
20,G7U C34G G59C,< 1e-05
21,G37A C50G,< 1e-05
22,G13C U31C A39C,2.61e-05 ± 1.3e-05
23,A48C C61G C70G,< 1e-05
24,G13A U57G,4.69e-05 ± 8.8e-06
25,A15G G43A C58A,< 1e-05

row,Variant,self-cleavage kobs at 10000 uM GlcN6P [s⁻¹]
1,A12U U31C C67G,0.000267 ± 5.5e-05
2,C8U G41U A48U C71G,< 1e-05
3,A6C U49A,< 1e-05
4,A33C G51A A64U,< 1e-05
5,G13A G44U G62U C71G,< 1e-05
6,C11A G41U G43U G44A G51C G63A,< 1e-05
7,G35A G43C C67G C68G,6.9e-05 ± 2e-05
8,G29U G38C G44A U47C,< 1e-05
9,A14G A15U G32A,0.00264 ± 0.00069
10,A6G U31C C34G,< 1e-05
11,G9U G32U G37U,< 1e-05
12,C8G G9C G13U G37U A64G,< 1e-05
13,A15U U30G A48U A53G,0.000112 ± 3.6e-05
14,C16U A39G G40U,0.0008 ± 0.00026
15,A6C A12C C58G,< 1e-05
16,C11U A53G G60A,< 1e-05
17,C8G A14G A33U,< 1e-05
18,A6G G29U G43C C61U C67U,< 1e-05
19,G26U A53C,0.00559 ± 0.0013
20,C19A C34G,< 1e-05
21,A15G C67A C68A,5.65e-05 ± 1.7e-05
22,A33G C34U C50G C67U,0.000194 ± 3.6e-05
23,G9C G43C C67U,< 1e-05
24,G29A U31C U54G,0.000213 ± 6.7e-05
25,U30G G32A C71U,0.00359 ± 0.0005

row,Variant,self-cleavage kobs at 10000 uM GlcN6P [s⁻¹]
1,C11U G38C C50A A53G G60C C68U,< 1e-05
2,C10A G29U U55G C68G,3.81e-05 ± 1.8e-05
3,A14C A33U A36U G60U G62C,< 1e-05
4,G35C A42C C70U,< 1e-05
5,A14C A23C,0.0057 ± 0.0012
6,G13A U57G C70U,3.53e-05 ± 1.7e-05
7,U56C U57G G59U,< 1e-05
8,G13A A15U A53G G60U,< 1e-05
9,A48U U56A C68U,7.52e-05 ± 1.8e-05
10,A6G C34A A39G,< 1e-05
11,C11U C50G C70G,3.88e-05 ± 1.4e-05
12,C11G U31G G35U A36U U49C A52U,< 1e-05
13,A39G A52C,2.99e-05 ± 1.2e-05
14,A6G A14G A53C,7.6e-05 ± 2.3e-05
15,A48C G62U C67U C71G,< 1e-05
16,C8G A33U U56A,< 1e-05
17,A12G A36U A48C A53C G66A C70G,< 1e-05
18,G26U A53G U69G,5.41e-05 ± 1.5e-05
19,A14U A42G C61G,< 1e-05
20,A33C A53G A64C,< 1e-05
21,A36U G43U G63C,< 1e-05
22,G29A G43U G51A,< 1e-05
23,C11G U31C A36C,< 1e-05
24,A12C C16A C67U,0.000164 ± 3.3e-05
25,U31G U55G U69G,6.94e-05 ± 1.1e-05

row,Variant,self-cleavage kobs at 10000 uM GlcN6P [s⁻¹]
1,G29C G40A A42G,8.98e-05 ± 2.9e-05
2,A12U U30G A36U G41U A52U,< 1e-05
3,G13U C50G C70U,5.49e-05 ± 1.2e-05
4,A15U C50U C58G,< 1e-05
5,U31C U47G C70G,4.82e-05 ± 1.5e-05
6,A15G U31A A36G C58U,< 1e-05
7,G7A C11G A14C A48G A64G,< 1e-05
8,C34A U47G A52U C70A,0.00102 ± 0.00046
9,U30G U45A C67A,0.00242 ± 0.00045
10,A14U U31C U46C,0.00011 ± 1.7e-05
11,A39G C58G C67U,3.44e-05 ± 1.2e-05
12,G40U G43C U65A,< 1e-05
13,U45C U65G C67A,0.000786 ± 0.00016
14,A12U C16G G29A C67G,0.000109 ± 2.3e-05
15,C11A A33C A42C C50G,< 1e-05
16,A39G U56G C68U,0.00322 ± 0.0012
17,A33C G37U,< 1e-05
18,U30C U31G C70G,0.000168 ± 4.5e-05
19,U47A A53G U55A G66C,0.000375 ± 5.9e-05
20,G7C C68A C71A,< 1e-05
21,A23C C68A,5.82e-05 ± 2.4e-05
22,A14C G38U G63U C68A,4.08e-05 ± 1.9e-05
23,C16U A33G A39U,< 1e-05
24,A36U G37C C50U U57A U69G,4.81e-05 ± 2.3e-05
25,C16U G26U U31C,5.34e-05 ± 1.7e-05

row,Variant,self-cleavage kobs at 10000 uM GlcN6P [s⁻¹]
1,C11U U31C U56C,9.92e-05 ± 2.1e-05
2,C8U G32A A48U A53U U55A,< 1e-05
3,A12G G13U U56G C61U C68G C70A,4.15e-05 ± 1.7e-05
4,C16U G29U G40U C50U,< 1e-05
5,C11U A42C U55C C70U,< 1e-05
6,U45G U55C G60A G63U,< 1e-05
7,C11G U30A U57G,< 1e-05
8,A15U G44U C61A,< 1e-05
9,U30C G32A C70G,7.6e-05 ± 1.7e-05
10,C8A G41U U46G G63A,< 1e-05
11,C10G G13A G41C C50U C67A,< 1e-05
12,A14C U45C A64G G66A,0.000542 ± 9.2e-05
13,G43C C58G C71A,< 1e-05
14,A15C A39G A52G,0.000495 ± 8.8e-05
15,A33C G62C C70U,< 1e-05
16,G40A A53G C71G,0.00453 ± 0.001
17,G38A G44U A53G,< 1e-05
18,C16U G29U C67G,0.000292 ± 8.5e-05
19,G44U A64U C67G,6.97e-05 ± 1.6e-05
20,A36C G38U U47C G51C,< 1e-05
21,G40A G51C C67U,< 1e-05
22,U45G A53G A64U,8.08e-05 ± 1.8e-05
23,A6C U31C G63U C71G,< 1e-05
